Patent EP4039268A1 (IMBA-Institut für Molekulare Biotechnologie GmbH, dated 2022)

B1: Klrg1 CRD-mouse IgG2a-Fc fusion protein (Fc fusion)
chain: NGSHCYYFSMEKKDWNSSLKFCADKGSHLLTFPDNQGVKLFGEYLGQDFYWIGLRNIDGWRWEGGPALSLRILTNSLIQRCGAIHRNGLQASSCEVALQWICKGGGSGGGSGGGS
B2: Clec2g CRD-mouse IgG2a-Fc fusion protein (Fc fusion)
chain: VGNKCFYFSEYTSNWTFAQTFCMAQEAQLARFDNEKELNFLMRYKANFDSWIGLHRESSEHPWKWTDNTEYNNMIPIQGVETCAYLSGNGISSSRHYIPRIWICSGGGSGGGSGGGS
B3: Klrk1 CRD-mouse IgG2a-Fc fusion protein (Fc fusion)
chain: HRNNCYQFFNEEKTWNQSQASCLSQNSSLLKIYSKEEQDFLKLVKSYHWMGLVQIPANGSWQWEDGSSLSYNQLTLVEIPKGSCAVYGSSFKAYTEDCANLNTYICMGGGSGGGSGGGS
B4: Colec12 CRD-mouse IgG2a-Fc fusion protein (Fc fusion)
chain: FTDKCYYFSLEKEIFEDAKLFCEDKSSHLVFINSREEQQWIKKHTVGRESHWIGLTDSEQESEWKWLDGSPVDYKNWKAGQPDNWGSGHGPGEDCAGLIYAGQWNDFQCDEINNFICEGGGSGGGSGGGS
B5: Ly75_5 CRD-mouse IgG2a-Fc fusion protein (Fc fusion)
chain: IEGSEYWFVADPHLNYEEAVLYCASNHSFLATITSFTGLKAIKNKLANISGEEQKWWVKTSENPIDRYFLGSRRRLWHHFPMTFGDECLHMSAKTWLVDLSKRADCNAKLPFICEGGGSGGGSGGGS
B6: Siglec10 CRD-mouse IgG2a-Fc fusion protein (Fc fusion)
chain: VQRIVKAQEGLCIFVPCSFSSPEGKWLNRSPLYGYWFKGIRKPSLSFPVATNNKDKVLEWEARGRFQLLGDISKKNCSLLIKDVQWGDSTNYFFRMERGFERFSFKEEFRLQVGGGSGGGSGGGS
B7: Clec7a CRD-mouse IgG2a-Fc fusion protein (Fc fusion)
chain: HGKSCYLFSFSGNSWYGSKRHCSQLGAHLLKIDNSKEFEFIESQTSSHRINAFWIGLSRNQSEGPWFWEDGSAFFPNSFQVRNTAPQESLLHNCVWIHGSEVYNQICNTSSYSICEGGGSGGGSGGGS
B8: Ncan CRD-mouse IgG2a-Fc fusion protein (Fc fusion)
chain: not shown
B9: Cd209b CRD-mouse IgG2a-Fc fusion protein (Fc fusion)
chain: FLLGNCYFFSKSQRNWNDAVTACKEVKAQLVIINSDEEQTFLQQTSKAKGPTWMGLSDLKKEATWLWVDGSTLSSRFQKYWNRGEPNNIGEEDCVEFAGDGWNDSKCELKKFWICKGGGSGGGSGGGS
B10: Vcan CRD-mouse IgG2a-Fc fusion protein (Fc fusion)
chain: not shown
B11: Klre1 CRD-mouse IgG2a-Fc fusion protein (Fc fusion)
chain: FRCSCYFFSKEELIWRDSQRACLSLNSSLIRMNKEEMNFFSLKSFFWVGVYYNETRRQWLWEDHSVLPSGLFSKLEANMKNFCASYKSKEAYMEENCANKLTYICKGGGSGGGSGGGS
B12: Lgals9_2 CRD-mouse IgG2a-Fc fusion protein (Fc fusion)
chain: FYTPIPNGLYPSKSIMISGNVLPDATRFHINLRCGGDIAFHLNPRFNENAVVRNTQINNSWGQEERSLLGRMPFSRGQSFSVWIICEGHCFKVAVNGQHMCEYYHRLKNLQDINTLEVAGDIQLTHVQTGGGSGGGSGGGS
B13: Klrg2 CRD-mouse IgG2a-Fc fusion protein (Fc fusion)
chain: SQEQCYYLSEEAQDWEGSQAFCSAHHATLPLLSHTQDFLRKYRITKGSWVGARRGPEGWHWTDGVPLPYQLFPADSEDHPDFSCGGLEEGRLVALDCSSPRPWVCAGGGSGGGSGGGS
B14: Ly75_10 CRD-mouse IgG2a-Fc fusion protein (Fc fusion)
chain: YGGHCYASDQVLHSFSEAKQVCQELDHSATVVTIADENENKFVSRLMRENYNITMRVWLGLSQHSLDQSWSWLDGLDVTFVKWENKTKDGDGKCSILIASNETWRKVHCSRGYARAVCKIGGGSGGGSGGGS
B15: Clec2i CRD-mouse IgG2a-Fc fusion protein (Fc fusion)
chain: VGNKCFYFSGYPRNWTFAQAFCMAQEAQLARFDNEEELIFLKRFKGDFDCWIGLHRESSEHPWKWTNNTEYNNMNPILGVGRYAYLSSDRISSSRSYINRMWICSGGGSGGGSGGGS
B16: Clec6a CRD-mouse IgG2a-Fc fusion protein (Fc fusion)
chain: FGSSCYLISTKENFWSTSEQNCVQMGAHLVVINTEAEQNFITQQLNESLSYFLGLSDPQGNGKWQWIDDTPFSQNVRFWHPHEPNLPEERCVSIVYWNPSKWGWNDVFCDSKHNSICEGGGSGGGSGGGS
B17: Ly75_3 CRD-mouse IgG2a-Fc fusion protein (Fc fusion)
chain: KDAESDKLCPPDEGWKRHGETCYKIYEKEAPFGTNCNLTITSRFEQEFLNYMMKNYDKSLRKYFWTGLRDPDSRGEYSWAVAQGVKQAVTFSNWNFLEPASPGGCVAMSTGKTLGKWEVKNCRSFRALSICKKGGGSGGGSGGGS
B18: Ly75_1 CRD-mouse IgG2a-Fc fusion protein (Fc fusion)
chain: QIGSCYQFNNQEILSWKEAYVSCQNQGADLLSIHSAAELAYITGKEDIARLVWLGLNQLYSARGWEWSDFRPLKFLNWDPGTPVAPVIGGSSCARMDTESGLWQSVSCESQQPYVCKGGGSGGGSGGGS
B19: Bcan CRD-mouse IgG2a-Fc fusion protein (Fc fusion)
chain: not shown
B20: Klri1 CRD-mouse IgG2a-Fc fusion protein (Fc fusion)
chain: FGNNFYCVFKENTKTWAESQSACEELNSHLVIIDSKAEVENLLLFEMDGWILHKMDGTNSSWLWRNDIKIQNTLTNDSEKKNHSCHYLRGNLFMPDECSAKKSYICEGGGSGGGSGGGS
B21: Clec2h CRD-mouse IgG2a-Fc fusion protein (Fc fusion)
chain: FGSKCFYFSEDMGNWTFSQSSCVASNSHLALFHSLEELNFLKRYKGTSDHWIGLHRASTQHPWIWTDNTEYSNLVLTRGGGECGFLSDNGISSGRSYTHRKWICSGGGSGGGSGGGS
B22: Klrb1c CRD-mouse IgG2a-Fc fusion protein (Fc fusion)
chain: HRDKCFHVSQVSNTWEEGQADCGRKGATLLLIQDQEELRFLLDSIKEKYNSFWIGLRFTLPDMNWKWINGTTFNSDVLKITGVTENGSCASILGDKVTPESCASDNRWICQGGGSGGGSGGGS
B23: Layn CRD-mouse IgG2a-Fc fusion protein (Fc fusion)
chain: TRRPCYKVIYFHDAFQRLNFEEAKETCMEDGGQLVSIETEDEQRLIEKFIENLLASDGDFWIGLKRLEEKQSNNTACQDLYAWTDGSTSQFRNWYVDEPSCGSEVCVVMYHQPSAPPGIGGSYMFQWNDDRCNMKNNFICKGGGSGGGSGGGS
B24: Clec5a CRD-mouse IgG2a-Fc fusion protein (Fc fusion)
chain: HQGKCFFFSFSESPWKDSMDYCATQGSTLAIVNTPEKLKYLQDIAGIENYFIGLVRQPGEKKWRWINNSVFNGNVTNQDQNFDCVTIGLTKTYDAASCEVSYRWICEGGGSGGGSGGGS
B25: Lgals6_2 CRD-mouse IgG2a-Fc fusion protein (Fc fusion)
chain: YVGALQGGFTVRRTIIIKGYVLPTAKTFAINFRVGSSEDIALHINPRIGDCLVRNSYMNGSWGTEERMVAYNPFGPGQFFDLSIRCGMDRFKVFANGIHLFNFSHRFQALRKINTLEINGDLTLSYVHIGGGSGGGSGGGS
B26: Lgalsl CRD-mouse IgG2a-Fc fusion protein (Fc fusion)
chain: PFCGHIKGGMRPGKKVLVMGIVDLNPESFAISLTCGDSEDPPADVAIELKAVFTDRQLLRNSCISGERGEEQSAIPYFPFIPDQPFRVEILCEHPRFRVFVDGHQLFDFYHRIQTLSAIDTIKINGDLQIGGGSGGGSGGGS
B27: Ly75_4 CRD-mouse IgG2a-Fc fusion protein (Fc fusion)
chain: SSLSCYKVFHIERIVRKRNWEEAERFCQALGAHLPSFSRREEIKDFVHLLKDQFSGQRWLWIGLNKRSPDLQGSWQWSDRTPVSAVMMEPEFQQDFDIRDCAAIKVLDVPWRRVWHLYEDKDYAYWKPFACDAKLEWVCQGGGSGGGSGGGS
B28: Ly75_2 CRD-mouse IgG2a-Fc fusion protein (Fc fusion)
chain: NNGFCYLLANESSSWDAAHLKCKAFGADLISMHSLADVEVVVTKLHNGDVKKEIWTGLKNTNSPALFQWSDGTEVTLTYWNENEPSVPFNKTPNCVSYLGKLGQWKVQSCEKKLRYVCKGGGSGGGSGGGS
B29: Atrnl1 CRD-mouse IgG2a-Fc fusion protein (Fc fusion)
chain: VGDACLRINSSRESYDNAKLYCYNLSGNLASLTTSKEVEFVLDEIQKFTQQKVSPWVGLRKINISYWGWEDMSPFTNTSLQWLPGEPNDSGFCAYLERAAVAGLKANPCTSMADGLVCEGGGSGGGSGGGS

Key:
Assay in all cases: ELISA screen
[1] = target: T1, full-length trimeric SARS-CoV-2 Spike protein (Spike-H6) (SARS-CoV-2, N-glycosylated (22 N-glycosylation sites))
T1 construct: also called trimeric Spike; full-length Spike-H6

[2] = target: T2, monomeric SARS-CoV-2 receptor binding domain (RBD-H6) (SARS-CoV-2, UniProt P0DTC2 319-541)
T2 construct: Made in HEK293-6E cells; also called RBD Spike; monomeric RBD

[3] = target: T3, human recombinant soluble ACE2 (human, UniProt Q9BYF1 18-740)
T3 construct: also called hrsACE2
T3 sequence (Q9BYF1 18-740 limits assumed): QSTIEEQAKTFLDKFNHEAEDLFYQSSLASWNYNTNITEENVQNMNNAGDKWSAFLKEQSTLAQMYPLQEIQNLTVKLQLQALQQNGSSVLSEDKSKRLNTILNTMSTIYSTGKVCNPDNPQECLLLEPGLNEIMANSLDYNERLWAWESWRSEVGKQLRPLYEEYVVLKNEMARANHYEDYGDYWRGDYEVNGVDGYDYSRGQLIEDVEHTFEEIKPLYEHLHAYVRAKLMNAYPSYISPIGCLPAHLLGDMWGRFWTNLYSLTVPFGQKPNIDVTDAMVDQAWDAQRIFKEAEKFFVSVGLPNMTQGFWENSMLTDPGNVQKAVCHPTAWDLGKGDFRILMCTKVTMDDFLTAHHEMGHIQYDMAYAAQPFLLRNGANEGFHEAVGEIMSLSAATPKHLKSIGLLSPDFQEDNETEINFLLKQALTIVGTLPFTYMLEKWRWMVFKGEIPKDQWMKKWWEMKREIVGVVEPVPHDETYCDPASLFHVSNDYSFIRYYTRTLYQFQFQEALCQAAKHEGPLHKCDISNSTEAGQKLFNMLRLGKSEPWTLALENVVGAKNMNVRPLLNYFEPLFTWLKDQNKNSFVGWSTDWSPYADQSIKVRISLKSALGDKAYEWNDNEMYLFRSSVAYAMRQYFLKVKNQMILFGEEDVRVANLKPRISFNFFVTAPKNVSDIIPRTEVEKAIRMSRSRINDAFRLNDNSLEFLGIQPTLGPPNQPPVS

Binder	Mean normalized OD [1]	Mean normalized OD [2]	Mean normalized OD [3]
B1	0.003 OD	0.003 OD	-0.843 OD
B2	-0.241 OD	–	-0.722 OD
B3	0 OD	0 OD	-0.003 OD
B4	0.04 OD	0.027 OD	–
B5	-0.17 OD	–	-0.106 OD
B6	0.046 OD	0.015 OD	–
B7	0 OD	0.004 OD	-0.001 OD
B8	-0.09 OD	–	-0.589 OD
B9	-0.032 OD	0.113 OD	-0.094 OD
B10	0.064 OD	0.052 OD	–
B11	-0.002 OD	0.045 OD	-0.006 OD
B12	0.056 OD	0.033 OD	–
B13	-0.044 OD	0.043 OD	-0.013 OD
B14	-0.002 OD	0.014 OD	-0.02 OD
B15	-0.61 OD	–	-0.249 OD
B16	0.003 OD	0.029 OD	-0.032 OD
B17	0.002 OD	0.001 OD	-0.003 OD
B18	-0.434 OD	–	-0.571 OD
B19	-0.111 OD	–	-0.538 OD
B20	0.002 OD	0.001 OD	-0.003 OD
B21	-0.387 OD	–	-0.707 OD
B22	0.001 OD	0.004 OD	-0.004 OD
B23	0.002 OD	0 OD	-0.005 OD
B24	0 OD	-0.001 OD	-0.005 OD
B25	0.135 OD	–	–
B26	0.006 OD	0.001 OD	-0.004 OD
B27	-0.014 OD	0.007 OD	-0.004 OD
B28	-0.319 OD	–	-0.135 OD
B29	0.001 OD	0.001 OD	-0.003 OD
